# ± gives the standard deviation of the averaged measurements.
# System: ATP
# Assay: switch fluorescence ratio, 500 uM ATP over buffer (Cy3 cluster intensity, sum of 5 cycles each) (fold (ratio)); higher = stronger signal-on switching upon ATP binding; sequences stand for … in TCGTCGGCAGCGTCAGATGTGTATAAGAGACAGTTTTTTTTTTTTTTTTTTTTTTTTT…TC
# Settings: aptamer strand: ATP DNA aptamer (quencher-CACCTGGGGGAGTATTGCGGAGGAAGG + anchor), 100 nM annealed; ATP concentration: 500 uM
# Summary of the method: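 Clusters with intensities outside 100-1000 RFU were excluded. The remaining Cy3-labelled switching-strand clusters on a modified Illumina MiSeq flow-cell had been annealed to 100 nM quencher-labelled ATP aptamer and imaged in selection buffer, then after 15 min with 500 uM ATP at 22 °C, for five cycles separated by NaOH stripping and re-annealing. The fluorescence ratio, averaged per switch-domain sequence, is each cluster's summed target-cycle Cy3 intensity over its summed buffer-cycle Cy3 intensity.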
# 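Further: ATP exposure 15 min at 22 °C before imaging.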
row,Sequence,switch fluorescence ratio
1,ATACTGTTGA,0.973 ± 0.013
2,ATACTTGAAC,1.034 ± 0.0012
3,ATAGAAAACT,1.4 ± 0.53
4,ATAGAACGGG,1.01 ± 0.025
5,ATAGAACTTT,0.9968 ± 0.0095
6,ATAGAATAGA,0.985 ± 0.02
7,ATAGACAGTG,1.02 ± 0.13
8,ATAGACGTAT,1.01 ± 0.011
9,ATAGACGTTA,1.07 ± 0.049
10,ATAGAGAGAG,1.02 ± 0.014
11,ATAGAGCTTG,0.997 ± 0.024
12,ATAGAGGCAC,1.09 ± 0.099
13,ATAGAGTTAG,0.982 ± 0.011
14,ATAGATGCTT,1.002 ± 0.003
15,ATAGATGTCT,0.992 ± 0.019
16,ATAGATTCTC,0.977 ± 0.025
17,ATAGCATGTA,0.991 ± 0.01
18,ATAGCGAGGA,1.05 ± 0.034
19,ATAGCGGACA,0.967 ± 0.033
20,ATAGCTAGTG,0.973 ± 0.013
21,ATAGCTGATT,0.983 ± 0.034
22,ATAGCTTGAG,1.01 ± 0.04
23,ATAGGAACTT,1.02 ± 0.013
24,ATAGGAGCAG,1.01 ± 0.048
25,ATAGGAGTCG,1 ± 0.02

row,Sequence,switch fluorescence ratio
1,ATAGGAGTTA,0.9814 ± 0.0071
2,ATAGGAGTTC,1.03 ± 0.023
3,ATAGGATTGC,0.982 ± 0.011
4,ATAGGATTTG,1.032 ± 0.0096
5,ATAGGATTTT,0.985 ± 0.034
6,ATAGGCACGG,1 ± 0.04
7,ATAGGCCGTA,1.03 ± 0.045
8,ATAGGCGCGG,1.01 ± 0.02
9,ATAGGCGGAA,1.02 ± 0.036
10,ATAGGGAATT,1 ± 0.024
11,ATAGGGGAAT,0.9872 ± 0.0072
12,ATAGGGGATT,1 ± 0.038
13,ATAGGGGGAG,1 ± 0.033
14,ATAGGGGGCT,0.9892 ± 0.0096
15,ATAGGGGGTT,0.98 ± 0.022
16,ATAGGGGTTT,1.013 ± 0.0055
17,ATAGGGTATA,0.981 ± 0.055
18,ATAGGGTGTG,1.02 ± 0.076
19,ATAGGTGTTG,1.02 ± 0.025
20,ATAGTACGCG,0.992 ± 0.03
21,ATAGTAGTCA,1.01 ± 0.024
22,ATAGTCAAAG,0.998 ± 0.034
23,ATAGTGACGT,0.9826 ± 0.0075
24,ATAGTGATAC,3.28 ± 0.057
25,ATAGTGGTGA,1.03 ± 0.048

row,Sequence,switch fluorescence ratio
1,ATAGTGTGGT,0.986 ± 0.083
2,ATAGTGTTGG,0.986 ± 0.029
3,ATAGTTATGT,1.0153 ± 0.00095
4,ATAGTTATTG,1.01 ± 0.022
5,ATAGTTCCAG,1.002 ± 0.0087
6,ATAGTTCCAT,0.9783 ± 0.005
7,ATAGTTCTAA,0.9939 ± 0.0048
8,ATAGTTCTAC,0.987 ± 0.0074
9,ATAGTTGGAT,0.98 ± 0.011
10,ATAGTTTGAC,1.008 ± 0.0015
11,ATATAAAAAA,1.01 ± 0.026
12,ATATAAGAAA,1.03 ± 0.041
13,ATATAAGAGC,1.03 ± 0.02
14,ATATAATAGG,0.9778 ± 0.0022
15,ATATACTATG,1.05 ± 0.026
16,ATATAGACGG,0.975 ± 0.024
17,ATATAGATTG,1.03 ± 0.038
18,ATATAGGCTA,0.995 ± 0.011
19,ATATAGGGGA,1.02 ± 0.051
20,ATATAGTGTA,0.99 ± 0.029
21,ATATATAAAT,0.978 ± 0.033
22,ATATATGCAG,0.986 ± 0.018
23,ATATATGGGG,0.987 ± 0.045
24,ATATCCCTGT,1.009 ± 0.0049
25,ATATCGAGGC,0.9803 ± 0.0089

row,Sequence,switch fluorescence ratio
1,ATATCGAGTT,0.9894 ± 0.00022
2,ATATCGGCGT,1.55 ± 0.82
3,ATATCTAGCC,0.9611 ± 0.0042
4,ATATCTTATG,0.964 ± 0.023
5,ATATGAATAG,1.01 ± 0.018
6,ATATGAGCAG,1.02 ± 0.024
7,ATATGATGTG,1.01 ± 0.03
8,ATATGCCCTA,0.9674 ± 0.0077
9,ATATGGATAC,1.05 ± 0.045
10,ATATGGATGA,0.96 ± 0.03
11,ATATGGATTG,1 ± 0.015
12,ATATGGCACG,1.032 ± 0.0014
13,ATATGGGAAA,0.978 ± 0.025
14,ATATGGGCTT,0.986 ± 0.014
15,ATATGGGGTG,1.05 ± 0.046
16,ATATGGGTTA,0.9912 ± 0.001
17,ATATGGTGAT,1 ± 0.057
18,ATATGTGTGA,0.968 ± 0.029
19,ATATGTGTTT,1.05 ± 0.018
20,ATATGTTTG,0.973 ± 0.047
21,ATATTAATTT,0.989 ± 0.023
22,ATATTAGACG,1.04 ± 0.036
23,ATATTATCAG,0.986 ± 0.014
24,ATATTCATCT,0.9861 ± 0.0056
25,ATATTCGGCG,0.975 ± 0.022

# Source: the supplement of paper PMC10126150
